IntAct's records for PubMed 35512704

B1: Mothers against decapentaplegic homolog 4 (Homo sapiens), Q13485 (parent)
chain: MDNMSITNTPTSNDACLSIVHSLMCHRQGGESETFAKRAIESLVKKLKEKKDELDSLITAITTNGAHPSKCVTIQRTLDGRLQVAGRKGFPHVIYARLWRWPDLHKNELKHVKYCQYAFDLKCDSVCVNPYHYERVVSPGIDLSGLTLQSNAPSSMMVKDEYVHDFEGQPSLSTEGHSIQTIQHPPSNRASTETYSTPALLAPSESNATSTANFPNIPVASTSQPASILGGSHSEGLLQIASGPQPGQQQNGFTGQPATYHHNSTTTWTGSRTAPYTPNLPHHQNGHLQHHPPMPPHPGHYWPVHNELAFQPPISNHPAPEYWCSIAYFEMDVQVGETFKVPSSCPIVTVDGYVDPSGGDRFCLGQLSNVHRTEAIERARLHIGKGVQLECKGEGDVWVRCLSDHAVFVQSYYLDREAGRAPGDAVHKIYPSAYIKVFDLRQCHRQMQQQAATAQAAAAAQAAAVAGNIPGPGSVGGIAPAISLSAAAGIGVDDLRRLCILRMSFVKGWGPDYPRQSIKETPCWIEIHLHRALQLLDEVLHTMPIADPQPLD

Variants of: B1
Details: with ruvb1_human RUVBL1, Q9Y265

Row | Variant | effect of a mutation on the interaction
1 | R361H | with no effect

Variants of: B1
Details: with rxra_human RXRA

Row | Variant | effect of a mutation on the interaction
2 | R361H | with no effect

Variants of: B1
Details: with sdha_human SDHA

Row | Variant | effect of a mutation on the interaction
3 | R361H | with no effect

Variants of: B1
Details: with setb1_human SETDB1, Q15047

Row | Variant | effect of a mutation on the interaction
4 | R361H | with no effect

Variants of: B1
Details: with sf3b1_human SF3B1, O75533

Row | Variant | effect of a mutation on the interaction
5 | R361H | with no effect

Variants of: B1
Details: with skp2_human SKP2, Q13309

Row | Variant | effect of a mutation on the interaction
6 | R361H | with no effect

Variants of: B1
Details: with smad1_human SMAD1, Q15797

Row | Variant | effect of a mutation on the interaction
7 | R361H | with no effect

Variants of: B1
Details: with smad2_human SMAD2, Q15796

Row | Variant | effect of a mutation on the interaction
8 | R361H | with no effect

Variants of: B1
Details: with smad3_human SMAD3, P84022
smad3_human SMAD3, P84022, sequence (P84022 whole entry, looked up): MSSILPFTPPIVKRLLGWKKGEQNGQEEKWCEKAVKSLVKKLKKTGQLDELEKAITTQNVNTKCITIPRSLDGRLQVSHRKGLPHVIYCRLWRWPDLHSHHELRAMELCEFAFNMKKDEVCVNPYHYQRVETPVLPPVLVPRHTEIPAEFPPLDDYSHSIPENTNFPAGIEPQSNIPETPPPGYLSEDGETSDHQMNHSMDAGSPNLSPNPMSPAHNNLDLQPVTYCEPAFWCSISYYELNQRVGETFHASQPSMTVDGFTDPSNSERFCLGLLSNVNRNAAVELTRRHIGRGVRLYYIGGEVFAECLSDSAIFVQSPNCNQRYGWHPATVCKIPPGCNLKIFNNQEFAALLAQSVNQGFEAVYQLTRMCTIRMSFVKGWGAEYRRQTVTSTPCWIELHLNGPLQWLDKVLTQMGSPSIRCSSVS

Row | Variant | effect of a mutation on the interaction
9 | R361H | with no effect

Variants of: B1
Details: with smca4_human SMARCA4, P51532

Row | Variant | effect of a mutation on the interaction
10 | R361H | with no effect

Variants of: B1
Details: with snf5_human SMARCB1, Q12824
snf5_human SMARCB1, Q12824, sequence (Q12824 whole entry): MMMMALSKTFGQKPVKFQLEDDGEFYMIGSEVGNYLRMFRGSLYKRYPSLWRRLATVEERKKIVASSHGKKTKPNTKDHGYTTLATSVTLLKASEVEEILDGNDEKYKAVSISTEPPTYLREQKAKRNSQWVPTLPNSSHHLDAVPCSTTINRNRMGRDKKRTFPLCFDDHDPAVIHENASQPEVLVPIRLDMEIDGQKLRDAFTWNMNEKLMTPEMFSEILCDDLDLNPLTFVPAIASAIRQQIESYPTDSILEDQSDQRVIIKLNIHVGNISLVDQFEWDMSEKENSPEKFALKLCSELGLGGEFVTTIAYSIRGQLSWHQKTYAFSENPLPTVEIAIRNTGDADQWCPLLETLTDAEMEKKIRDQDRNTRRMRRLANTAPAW

Row | Variant | effect of a mutation on the interaction
11 | R361H | with no effect

Variants of: B1
Details: with smo_human SMO

Row | Variant | effect of a mutation on the interaction
12 | R361H | with no effect

Variants of: B1
Details: with sox10_human SOX10, P56693

Row | Variant | effect of a mutation on the interaction
13 | R361H | with no effect

Variants of: B1
Details: with sox2_human SOX2, P48431

Row | Variant | effect of a mutation on the interaction
14 | R361H | with no effect

Variants of: B1
Details: with sox3_human SOX3, P41225

Row | Variant | effect of a mutation on the interaction
15 | R361H | with no effect

Variants of: B1
Details: with sox4_human SOX4, Q06945

Row | Variant | effect of a mutation on the interaction
16 | R361H | with no effect

Variants of: B1
Details: with sox9_human SOX9, P48436
sox9_human SOX9, P48436, sequence (P48436 whole entry): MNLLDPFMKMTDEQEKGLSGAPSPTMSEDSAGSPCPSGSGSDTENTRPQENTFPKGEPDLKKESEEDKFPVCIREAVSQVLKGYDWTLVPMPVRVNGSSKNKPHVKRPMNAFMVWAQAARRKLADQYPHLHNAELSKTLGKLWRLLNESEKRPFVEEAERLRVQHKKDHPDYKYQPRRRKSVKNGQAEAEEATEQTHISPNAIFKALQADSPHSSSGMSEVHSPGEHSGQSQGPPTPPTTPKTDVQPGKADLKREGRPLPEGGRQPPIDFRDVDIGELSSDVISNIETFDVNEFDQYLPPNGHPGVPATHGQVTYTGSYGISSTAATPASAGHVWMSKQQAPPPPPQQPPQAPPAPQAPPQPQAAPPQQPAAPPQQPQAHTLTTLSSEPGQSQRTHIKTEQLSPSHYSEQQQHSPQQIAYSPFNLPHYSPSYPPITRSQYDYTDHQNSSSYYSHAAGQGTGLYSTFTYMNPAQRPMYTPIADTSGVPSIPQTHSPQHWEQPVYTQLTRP

Row | Variant | effect of a mutation on the interaction
17 | R361H | with no effect

Variants of: B1
Details: with spop_human SPOP

Row | Variant | effect of a mutation on the interaction
18 | R361H | with no effect

Variants of: B1
Details: with src_human SRC

Row | Variant | effect of a mutation on the interaction
19 | R361H | with no effect

Variants of: B1
Details: with stat3_human STAT3, P40763

Row | Variant | effect of a mutation on the interaction
20 | R361H | with no effect

Variants of: B1
Details: with stk38_human STK38, Q15208

Row | Variant | effect of a mutation on the interaction
21 | R361H | with no effect

Variants of: B1
Details: with ksyk_human SYK

Row | Variant | effect of a mutation on the interaction
22 | R361H | with no effect

Variants of: B1
Details: with eloc_human ELOC

Row | Variant | effect of a mutation on the interaction
23 | R361H | with no effect

Variants of: B1
Details: with tfe2_human TCF3, P15923

Row | Variant | effect of a mutation on the interaction
24 | R361H | with no effect

Variants of: B1
Details: with tead1_human TEAD1, P28347

Row | Variant | effect of a mutation on the interaction
25 | R361H | with no effect

Variants of: B1
Details: with tead2_human TEAD2, Q15562
tead2_human TEAD2, Q15562, sequence (Q15562 whole entry): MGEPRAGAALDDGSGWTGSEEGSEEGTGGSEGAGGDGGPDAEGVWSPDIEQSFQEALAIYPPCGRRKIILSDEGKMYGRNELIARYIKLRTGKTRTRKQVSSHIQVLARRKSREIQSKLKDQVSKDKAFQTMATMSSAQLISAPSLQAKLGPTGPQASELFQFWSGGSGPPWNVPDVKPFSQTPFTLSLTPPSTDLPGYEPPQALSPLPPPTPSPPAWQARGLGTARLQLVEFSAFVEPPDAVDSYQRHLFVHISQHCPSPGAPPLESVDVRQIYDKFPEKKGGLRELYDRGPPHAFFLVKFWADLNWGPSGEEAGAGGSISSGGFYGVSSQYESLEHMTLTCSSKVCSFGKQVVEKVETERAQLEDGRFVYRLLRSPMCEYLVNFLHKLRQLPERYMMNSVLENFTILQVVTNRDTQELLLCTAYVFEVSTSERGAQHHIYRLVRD

Row | Variant | effect of a mutation on the interaction
26 | R361H | with no effect

Variants of: B1
Details: with tead3_human TEAD3, Q99594
tead3_human TEAD3, Q99594, sequence (Q99594 whole entry): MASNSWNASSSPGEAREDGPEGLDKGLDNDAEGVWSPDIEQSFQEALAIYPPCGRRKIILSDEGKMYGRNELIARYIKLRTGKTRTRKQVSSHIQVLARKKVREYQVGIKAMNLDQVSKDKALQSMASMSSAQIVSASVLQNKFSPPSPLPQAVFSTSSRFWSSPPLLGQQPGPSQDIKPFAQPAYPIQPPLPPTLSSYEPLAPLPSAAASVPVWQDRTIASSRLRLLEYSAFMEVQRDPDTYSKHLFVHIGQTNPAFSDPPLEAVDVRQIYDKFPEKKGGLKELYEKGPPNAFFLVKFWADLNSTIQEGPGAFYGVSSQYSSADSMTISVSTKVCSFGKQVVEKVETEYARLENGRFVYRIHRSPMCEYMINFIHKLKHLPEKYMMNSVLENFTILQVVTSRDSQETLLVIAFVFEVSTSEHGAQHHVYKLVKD

Row | Variant | effect of a mutation on the interaction
27 | R361H | with no effect

Variants of: B1
Details: with tgfr2_human TGFBR2, P37173

Row | Variant | effect of a mutation on the interaction
28 | R361H | with no effect

Variants of: B1
Details: with tnr14_human TNFRSF14, Q92956
tnr14_human TNFRSF14, Q92956, sequence (Q92956 whole entry): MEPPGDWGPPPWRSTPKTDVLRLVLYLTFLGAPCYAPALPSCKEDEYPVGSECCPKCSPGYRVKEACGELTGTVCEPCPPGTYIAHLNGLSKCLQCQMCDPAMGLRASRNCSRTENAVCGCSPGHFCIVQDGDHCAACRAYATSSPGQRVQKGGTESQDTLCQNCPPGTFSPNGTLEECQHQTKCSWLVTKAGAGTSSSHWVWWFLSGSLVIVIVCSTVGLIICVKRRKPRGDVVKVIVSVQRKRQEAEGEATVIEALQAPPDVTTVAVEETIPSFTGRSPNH

Row | Variant | effect of a mutation on the interaction
29 | R361H | with no effect

Variants of: B1
Details: with tpx2_human TPX2, Q9ULW0
tpx2_human TPX2, Q9ULW0, sequence (Q9ULW0 whole entry): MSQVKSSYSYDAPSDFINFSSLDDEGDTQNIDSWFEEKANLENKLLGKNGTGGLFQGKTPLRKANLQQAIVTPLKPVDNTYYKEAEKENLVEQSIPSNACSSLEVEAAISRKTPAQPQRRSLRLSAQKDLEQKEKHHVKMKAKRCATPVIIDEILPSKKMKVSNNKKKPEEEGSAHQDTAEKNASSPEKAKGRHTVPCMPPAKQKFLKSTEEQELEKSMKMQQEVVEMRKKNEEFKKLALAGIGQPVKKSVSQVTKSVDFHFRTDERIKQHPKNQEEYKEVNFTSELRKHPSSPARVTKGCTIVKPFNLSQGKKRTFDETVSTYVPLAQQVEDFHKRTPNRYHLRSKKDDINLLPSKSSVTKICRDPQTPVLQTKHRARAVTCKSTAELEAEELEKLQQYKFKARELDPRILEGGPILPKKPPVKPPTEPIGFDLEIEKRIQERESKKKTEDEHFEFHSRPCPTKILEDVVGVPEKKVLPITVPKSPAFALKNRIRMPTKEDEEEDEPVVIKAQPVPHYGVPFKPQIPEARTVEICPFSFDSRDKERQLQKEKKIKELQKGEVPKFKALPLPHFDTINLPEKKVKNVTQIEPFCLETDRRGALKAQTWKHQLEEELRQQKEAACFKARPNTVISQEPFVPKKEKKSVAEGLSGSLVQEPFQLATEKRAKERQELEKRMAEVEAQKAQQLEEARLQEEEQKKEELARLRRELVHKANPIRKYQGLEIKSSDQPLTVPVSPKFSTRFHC

Row | Variant | effect of a mutation on the interaction
30 | R361H | with no effect

Variants of: B1
Details: with trrap_human TRRAP

Row | Variant | effect of a mutation on the interaction
31 | R361H | with no effect

Variants of: B1
Details: with tsc2_human TSC2, P49815
tsc2_human TSC2, P49815, sequence (P49815 whole entry): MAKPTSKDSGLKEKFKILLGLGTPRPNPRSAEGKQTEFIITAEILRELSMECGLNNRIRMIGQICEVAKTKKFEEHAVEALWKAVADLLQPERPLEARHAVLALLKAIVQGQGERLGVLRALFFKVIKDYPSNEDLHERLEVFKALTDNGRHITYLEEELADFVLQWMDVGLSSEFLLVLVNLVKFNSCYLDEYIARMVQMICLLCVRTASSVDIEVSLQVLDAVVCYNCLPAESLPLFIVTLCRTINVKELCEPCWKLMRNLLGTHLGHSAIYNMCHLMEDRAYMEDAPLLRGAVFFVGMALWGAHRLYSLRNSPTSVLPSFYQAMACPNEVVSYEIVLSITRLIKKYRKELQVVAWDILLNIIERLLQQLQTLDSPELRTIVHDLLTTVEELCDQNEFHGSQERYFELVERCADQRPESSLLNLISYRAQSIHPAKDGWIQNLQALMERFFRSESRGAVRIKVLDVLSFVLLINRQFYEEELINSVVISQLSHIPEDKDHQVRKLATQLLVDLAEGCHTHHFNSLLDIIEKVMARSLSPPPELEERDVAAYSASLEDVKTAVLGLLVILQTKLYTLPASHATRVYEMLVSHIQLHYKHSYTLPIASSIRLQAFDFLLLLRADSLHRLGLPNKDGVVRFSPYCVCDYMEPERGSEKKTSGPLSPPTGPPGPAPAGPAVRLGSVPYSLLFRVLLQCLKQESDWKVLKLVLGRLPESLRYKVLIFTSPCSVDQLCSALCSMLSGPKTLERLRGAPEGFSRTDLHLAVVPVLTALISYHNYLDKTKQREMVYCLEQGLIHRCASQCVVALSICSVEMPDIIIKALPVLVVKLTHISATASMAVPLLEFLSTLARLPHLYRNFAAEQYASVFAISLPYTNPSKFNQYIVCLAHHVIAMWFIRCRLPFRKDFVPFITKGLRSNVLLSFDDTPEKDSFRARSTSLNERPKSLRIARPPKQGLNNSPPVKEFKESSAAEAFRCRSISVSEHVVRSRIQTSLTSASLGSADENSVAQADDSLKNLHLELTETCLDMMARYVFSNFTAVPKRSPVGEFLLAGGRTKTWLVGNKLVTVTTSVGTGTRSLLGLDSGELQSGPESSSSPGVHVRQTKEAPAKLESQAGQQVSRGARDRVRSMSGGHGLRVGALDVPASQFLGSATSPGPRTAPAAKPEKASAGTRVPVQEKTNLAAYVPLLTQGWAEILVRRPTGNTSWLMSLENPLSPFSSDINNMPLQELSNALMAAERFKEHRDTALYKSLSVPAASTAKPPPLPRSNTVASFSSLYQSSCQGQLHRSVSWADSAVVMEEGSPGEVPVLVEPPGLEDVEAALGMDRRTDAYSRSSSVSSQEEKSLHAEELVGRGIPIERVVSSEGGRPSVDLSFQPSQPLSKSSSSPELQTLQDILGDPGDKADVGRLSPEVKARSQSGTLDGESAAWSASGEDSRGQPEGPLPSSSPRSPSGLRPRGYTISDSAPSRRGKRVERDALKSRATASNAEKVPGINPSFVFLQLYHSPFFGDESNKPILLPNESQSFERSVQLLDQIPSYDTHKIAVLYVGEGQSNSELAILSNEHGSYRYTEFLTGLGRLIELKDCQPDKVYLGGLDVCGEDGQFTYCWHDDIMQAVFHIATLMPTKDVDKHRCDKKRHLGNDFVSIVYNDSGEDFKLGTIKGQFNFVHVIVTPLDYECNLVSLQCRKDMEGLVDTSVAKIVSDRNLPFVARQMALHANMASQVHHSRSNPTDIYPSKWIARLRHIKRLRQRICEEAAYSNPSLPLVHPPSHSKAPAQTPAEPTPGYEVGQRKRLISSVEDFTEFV

Row | Variant | effect of a mutation on the interaction
32 | R361H | with no effect

Variants of: B1
Details: with tshr_human TSHR

Row | Variant | effect of a mutation on the interaction
33 | R361H | with no effect

Variants of: B1
Details: with vhl_human VHL

Row | Variant | effect of a mutation on the interaction
34 | R361H | with no effect

Variants of: B1
Details: with wt1_human WT1, P19544

Row | Variant | effect of a mutation on the interaction
35 | R361H | with no effect

Variants of: B1
Details: with wwtr1_human WWTR1, Q9GZV5

Row | Variant | effect of a mutation on the interaction
36 | R361H | with no effect

Variants of: B1
Details: with xpo1_human XPO1, O14980

Row | Variant | effect of a mutation on the interaction
37 | R361H | with no effect

Variants of: B1
Details: with 1433b_human YWHAB

Row | Variant | effect of a mutation on the interaction
38 | R361H | with no effect

Variants of: B1
Details: with 1433e_human YWHAE

Row | Variant | effect of a mutation on the interaction
39 | R361H | with no effect

Variants of: B1
Details: with 1433z_human YWHAZ

Row | Variant | effect of a mutation on the interaction
40 | R361H | with no effect

Variants of: B1
Details: with smad3_human SMAD3, P84022
Remark: another data set of the same source

Row | Variant | effect of a mutation on the interaction
41 | R361H | decreasing interaction strength
